Measurements as given in the supplement of paper PMC12042874.
± gives the uncertainty stated by the source.

Experiment: amyloid nucleation score (Sup35N fusion, yeast selection) (log enrichment); library NNK3; higher = more nucleation; inactive = no reads after selection
Summary of the method: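 Output and input plasmid inserts were sequenced by Illumina after psi-negative yeast carrying Sup35N fused to peptides of 20 random codons had been induced 24 hours with 100 μM copper sulfate and grown 7 days at 30°C on medium lacking adenine and uracil. The nucleation score is the DiMSum log enrichment of output over input reads, centred on the mode score of non-aggregating sequences. Sequences with under 100 input reads were excluded.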

Substance	amyloid nucleation score
LKNHNLVTKHYYARLMIGLW	inactive
FSGRMVSRIDIIYRRKSVMS	1.28 ± 0.076
NSTKLKPYWGPG	inactive
SPPLYSYRGRYMERYHSKWN	inactive
TVSGLMVFVMHNGYS	1.45 ± 0.084
MMLGVLYATLWPLLKLDCGE	inactive
GQVLNCVRNRIRIAVKRRGG	inactive
LVGSSSFTAWPTIVSNI	inactive
VDGATFFISWKIMARDSYRY	inactive
PKGEGIMISLFLDCTRLVNG	2.11 ± 0.077
SHRKMFQGVKQVISSPETHS	inactive
YRAYYSYSFRW	inactive
GSYSGM	inactive
VWSEDIYFCIILRLMDKS	inactive
KSLSIRFYWVSPWTVVWDSR	0.872 ± 0.11
DRISGFVIKYNFNLSFSEMW	0.52 ± 0.17
LHTICHMLLIH	inactive
AAYAALQMSK	inactive
RCNKRTEGVSE	inactive
RVWRSNSPGAEKWTLLTKTL	inactive
MSMFYSNRHNPVKRTSGTGL	inactive
LHICTLYREVVVAAQCS	inactive
FCLVLGVWNLVPPGVKSMMQ	0.889 ± 0.14

Substance	amyloid nucleation score
CEGCTYMCSCI	0.85 ± 0.1
GGQGIYMY	inactive
VRWYCS	inactive
IFNGRDNLQLDVWLGGYFLV	inactive
VMMYFQFMPLKPSRD	1.25 ± 0.12
TDLGSVGGW	-0.206 ± 1.5
LHSFLRCDCSIARF	inactive
GPMWQLAVTCACSDNRMWTK	0.053 ± 0.51
IVFRLANKPRRANRC	inactive
HGTKREKIYLYGYCPDKNHH	inactive
GSGHAVIEVIRRFCSEDDNK	inactive
YFTQNSSYVGV	inactive
WCPSQDNFWQNFLF	-0.079 ± 0.23
FISLWQPPRL	inactive
ICRQS	inactive
TWDWGCKVGFRKGKKV	inactive
VFYELAYFSNNQTDQWVLD	inactive
LYIIFHNKYFLVEMGNYNCC	1.88 ± 0.07
VKFMMPRVDIWFKDGVRRYT	inactive
TNLMLSLE	inactive
NWLSMQRTLFWP	-0.38 ± 0.5
DCGKWNLWSQPLGTG	inactive
CSSSRVWVHKHYGTYRHFIL	inactive

Substance	amyloid nucleation score
MVFLVVVWFVKNGWKCVYGS	inactive
CTHVLRNWGIKNGP	inactive
CDSTSITWGHVLWFYINYWM	inactive
YTFTRV	inactive
DTRVGP	inactive
LSNHCARVF	inactive
YVAIMLAKSKTRS	inactive
WEILYPEGWFWTFRRSGVGS	inactive
RFYSARGGKRARIHVRVKWD	-0.446 ± 0.55
DSVRASSLLWMFWCIVEFHG	inactive
NPKLG	inactive
WWNLWSPAATATRRCY	-0.462 ± 0.9
GGRDNTEIDVMTWRRRPGKS	inactive
GLCSMLASFRTQYSS	inactive
QLLSLKWYYVTRILCARYAD	inactive
ISFYKGYLKFNL	inactive
QFPSSQN	inactive
YEDAAILDVCDPQIELLLHQ	inactive
SSISVRENYFMASRVMMVGC	0.234 ± 0.56
LYITMRNVF	inactive
NRIFSVCECMVYGICECVCR	inactive
RARALLAHLKVPSKPVFTAV	inactive
YSDWDIYWIFMFGAGRFFMY	3.06 ± 0.068

Substance	amyloid nucleation score
GGMYKNWGCWLELLGKTLPW	inactive
FINAVAIRMIILVSRTRPTF	0.984 ± 0.12
TDAYKLITFIFPCKYLVTVC	inactive
VTRISGTETSDVYINI	0.101 ± 0.6
GFSYSWNLFILFGQQICWIW	inactive
NKPGVV	inactive
TTGLISSNGVTG	inactive
RTIHVGWVMAIIGTALRCCM	inactive
VRQKALRNPQL	inactive
IRYALTINYSNTVL	0.457 ± 0.24
RFKYPPTFKMNSSSFFQSLL	inactive
RMSRNMWFWLRLNSNYIVFS	inactive
IRSVL	inactive
RMFNSYNQFLLVAMLPYPLR	2.62 ± 0.071
RHLLLTGKSWCVQACPGRTV	-0.965 ± 1.1
TRTCRIWIKSVMGRRWVIRM	inactive
PVRSPAACGDRLSVRVANME	inactive
HKQCWYILVNVRLMSRSRRV	0.818 ± 0.13
GLVNVVWMCFLGWPWLKVRS	inactive
WCPSSSM	inactive
YFMVEVMLILMSDGAFYTFC	inactive
TLNVFVNN	2.26 ± 0.056
RGATC	inactive

Substance	amyloid nucleation score
TISISR	inactive
LLFFLAGVSSHIMYLVYARC	inactive
LACPWLTLIGYVQIRCNFDG	inactive
RKCRCYLTSFKDPALYLT	inactive
FKFGLQLIRCMDFHWMF	inactive
MKWNPLDQTKL	inactive
PVNEFYYLFCKRVYPCALQI	0.295 ± 0.53
CIAPILFPALAHQLLLAKGH	inactive
GEVNTAFYSWPAMPVLADYG	inactive
PYPESVFQWFEYIPFYCSVR	inactive
VFFVQCNHWNGMVNVFAM	2.9 ± 0.057
YLPRSW	inactive
DFRRTGLCIREWSSWRIMKL	inactive
AGVIAWVYSSG	inactive
HKILRSVGFGRILAYGLLDI	inactive
SFYPLCRQAVTDMFNKHCFP	inactive
MSNRHWM	inactive
RPQSLVYRFISYHRLYYLYR	inactive
KTYEETSDTYYFQVLFTNPI	inactive
RMRSMRSMF	inactive
LYGDL	inactive
GITMFGLHMYQNDCLEVAWL	0.904 ± 0.25
GVLSCLSIMIAISGLPGSEK	0.801 ± 0.2

Substance	amyloid nucleation score
RTKIAFTRVLFATKLWNETN	inactive
KPVYYQCLENISSFEC	inactive
LYGAWSNIPLYMFSFHFMYR	inactive
CVTFFVISTHPHSCSLSN	2.42 ± 0.083
SKSFVYPVNVCRRWLAVLGN	inactive
SRFDDCSVYRESWVSIVRLS	inactive
DCSGG	inactive
LFAIDNWVVKDSLVVWCEGR	inactive
KCGFLTSPHMFSLK	inactive
PFAST	inactive
GNDVGSMFESRN	inactive
ILFLSLRSYSLNGFSDIMYY	inactive
GYESLYRQHLYDSSLCWESR	inactive
FSRTRVTLV	inactive
PLEWNNGVYISGWLWVLVSW	-0.518 ± 0.63
WHMWMESKLWQPQRATSVFP	inactive
SNLSNPLIVMKFYQAAMGVH	inactive
LGVALVTICVLRECGKILYI	-0.107 ± 0.68
QRDTSGEYGIVWYYVFNRTG	inactive
MYQVDMMLCTITDWVGSNWY	0.666 ± 0.27
CVSRICVWPRYETTGFYAST	inactive
YVDNLACLNSFPIMPVFKVG	inactive
VLAMIVRHRKYKIDFIFMLD	inactive

Substance	amyloid nucleation score
VNVMWKPLGLHIVPMFAFGK	1.13 ± 0.16
NSFVASEFKRLYRQWSRVHE	inactive
ADIRFKMRENDMFWSNGWGH	inactive
VSVDWGLPRFGYTYKIL	inactive
FGGSILTSYINGRGSAGLNW	0.797 ± 0.22
HEVLVVIRNLFDFVVFCVLQ	inactive
FNAKFFSQNMSVWCGVFM	2.6 ± 0.078
CIRPVLSHSYEIKNTGLGRT	inactive
TTLLFMKH	inactive
LFMKSVEMWNRGYLSITCMC	inactive
VDRFRSQNKFVSNGMSLIRK	inactive
ANGNNSLTATLTNAVD	inactive
TDFDNFSDTF	inactive
EDFLNSWKVSYWKNHTMVVW	inactive
NTHNNIGGRYAKYGWLMRSK	inactive
QTVKVISPYPTMLTLCD	inactive
FISSRLFTALLSRCNFHNRF	inactive
LTMSRMMYLDKMLYFLYVQW	inactive
WIDGINWLSSLVTAIKHSVK	inactive
SWLANRYMGDYIRQWVWDKL	-0.932 ± 1.8
RYVRCFLYTYKNFFD	inactive
NAGYCVRTRSLGESLSIVRK	inactive
